According to a protein production outcome set (Wang et al. 2014):

Test: label from the status in PepcDB records
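Further: failed if final PepcDB status was selected cloned or expressed and not failed if soluble or beyond.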

Sequence	protein production
MKQFVLFFISLFLLGVGARSQEMYQKKVFISSRGDSLNYRLLRPEVEKTGLQYPLVLFLHGAGERGSDNEKQLTHGGQMFLNPVNREKYPAFVLVPQCPEKDYWAYTSRPSSFIPSEMPVGQEITPVLRAVKELLDTYLDLPQVDRNRIYVVGLSMGGMATYDLAVRFPDTFAAAVPICGTVNPVRLADAANVRFRIFHGDADNVVPVEGSREAYKALKNLGAEVEYIEFPGCNHGSWNPAFNYPGFMEWLFAQRKR	failed
MKQIIIAIGREFGSGGHLVAKKLAEHYNIPLYSKELLDEVAKDGRYSKEVLERFDEKPMNFAFIPVPAGGTTISLEQDIAIRQFNFIRKKANEEKESFVIVGRCAEEILSDNPNMISAFILGDKDTKTKRVMEREGVDEKTALNMMKKMDKMRKVYHNFYCESKWGDSRTYDICIKIGKVDVDTATDMIIKYIDSRDN	not failed
MKQKDLKRAYNNVLAQAISGSKQYLFAGNLFGDIFVLRIKELDKGSEEPPGKLKIFPQGSDVDINYLAFHRDFLIVGAVGLIYGLEWNEEEESLATKRSWEVKIPMQVDAVEVPDVNSMWLDSENSILFAGCGDGVIYQVSLEDGRIQREYRGHTDYVHSVVGNANGQIFSGAEDGTVRVWSTKQQQHTSMLEPYKNPNLLRPDWGKWIGAVAVNEDWLLCGGGPKASIFHLRSMESTCVFSFPGRVHLCDFVDDCVLIGGEHNHVQSYTLNGVLQANIPVEHTACYSAVWQTSPIKFISIAGFSNKLHILKDFRFLDSKIEMYGNVEGEENDPEEEDELIEKPLTVEAA	failed
MKQKSQMETRFVKPLSCLTLSIITTIGILPPATAQETSPAKSACEQVLSNAEQKPLTKQVQKLAQFADPQQERSQMIQQANALFSQGDLPGAEENLCKFLKKYSDDAFGHFQLGNVFFRGKKVEAAISAYQEAIRLRSRYAVAYNALGIVYASQSRWSEAIVQYQKALEINPDYGDALTNVALALWQTNKKDEALASLEKALNIFKKQNRNEKANQVEQLLQRIKNSDDNLS	failed
MKQLLLGRNALFGLLGAIAVLTVVPVATIMPAYAVDDIEGADAPDLTAVQAKIAAKDYKGALAELRDLAQDNQQADVYNLLGFTLRKTGDVTTALTYYNKALELKPDHKAAREYLGELYVETGDMNKAKEQLASLQKLCPAGCEELSDLQKAIDTKVTQ	failed
MKQNLVAVDILLNQMRDRNIKLDSFVVSAIIETNCDRCRTEGASLAFDYSLEMGIHLKKSAYLALIGNFLRSNELPKVIEVVKEMVKAQHSLGCYQGAMLIHRLGFGRRPRLAADVFDLLPDDQKGVAAYTALMDVYISAGSPEKAMKILREMREREIMPSLGTYDVLLSGLEKTSDFQKEVALLRKEKKSLVASARFRENVHVEDKICDLLFATNLL	failed
MKQQKGVALITILVMVALATILAATIAKHQGNTAESTGYLMRQNQSLLYAKSAEAFFSELLIQDAENSPDVDHLAETWAQPMPPFPVEDGFVSGTLRDESGKFNLNNLVNADGTPNPAAQLWFEQLLVRVGLPAELSQAVIDWQDPDDQITGAMGAESNYYQGLSHPYLAANSKFQSVDELRLVRGFEGKKFDLIRPYISALPSVSTTKVNINTAPALLLASIDKNLDINAVQVALKEKMANLGYFKSVDELWALDAFKNIDQDSKTKISTLLDVKSSYFKAYIEVVLSERKRQFTSDLMRNNKKVYVYSRSLTPIFDIPQN	failed
MKQRIPTLLAGACLAIPLHALGAADLLVVNARIFTANPQQPFAEALAVEDGRILAVGDEAGLRALADGDSQVVDLGGKRLMPGLIDTHSHAVFGGLELAGADMGNEQVGLDELERRLRAWRDNGKARHGDMLNVSGMHTAYWSQVKDFRARFDHGEWADQPLAFIGSDHHTGWANAAMLKRAGIDAARVRALPEEQRNTIGHDADATPNGFLADAGLDAVLAVLPAPSAEQMLEAGRSAVRYSNSLGLTAWMDPAANGSPGDALFSLRPDENTVGVLPVYHRLAKGGELSAHVAALLVANPRSRPTDLEVLDKVRQRFLGSPNLTLPGIKVFADGVPEYPAQTAALLEPYRNSRKTGELLIDPAHFGELVSAADARGWLVHVHAIGDRAVREALNGMQQARRDRDSGIAHSITHLQLVNPKEFERFRPLGVIASMQLYWAAADETTVDLMKPYISAFAYRYQYPAHSLLSKGATIAGASDWPVSSLSPWKAIQQAVTRKGPQGVLNAGERLDRQTMFYAYTRNAARTIGLEHRIGSLEPGKQADFIVLDRDVFEVPETQLGETKVLKTWFAGKPVYSSEG	failed
MKQSGTAAHKLTIFYVGMLLLFLIGLWLFATIGKELETNVVDKAMSLRGRGGLVGAFDSFSESVHHHFTDTIGVLLLQIIVILTVARLVAWFFGKIGQPTVIGEIVAGILLGPSLLGAVWPEAYEVLFPLSALANLELLSQFGLILFMFVIGMELNINDIKPRFSQSMIISHAGIFIPFLLGLLISYMTYKDYAADTTTFLPYGLFIGISMSITAFPVLARIIQERQLGKSHLGMLSISTAAAGDISAWLMLAGVMAITQSGSFLSAIYNFLFLILYLLVIFGLVRPFFKVIGRLYDNQEVVSKTMIGFIFVLLLASAYATELLSMHALFGAFMLGLVMPENVQFRKILTEKVEDVSLTLFLPLFFVSSGLQTKLGLLDSASLWLLTGAFTLIAIIGKFGGTYVAARFCGERKKASLYLGAFMNTRGLMELVVLAIGRELGILPPVIFTILVMMTLITTFMTTPLLRLIDLFFKRETELENAALQKENSGAVLLSFGRASSGAHLLHATDLLMHRGDEKPSVTALHITVGSDTNLTSSEVYEERAFAPIREESDRRRLPIRTLHHHTFEHPEAEVVRTVNAGGYSFLLVGAGINLSDRKSDRELLYFRKKLQRKLGPISIATPEALLNAHEMLRDKMHYFIEQTQCSVGIFIHRGFKHAGKVLLLMENEGDEELLAYARSLARNNGSVLDVLPETDGLPPTLSMGENRLKAGLPSTINISSYHFMLVSYRYWLRFAGECPSVIEHLPSTIIIHHRNDRSSTLKAAMI	failed
MKRAVVVFSGGQDSTTCLIQALQDYDDVHCITFDYGQRHRAEIEVAQELSQKLGAAAHKVLDVGLLNELATSSLTRDSIPVPDYDANAQGIPNTFVPGRNILFLTLASIYAYQVGAEAVITGVCETDFSGYPDCRDEFVKALNQAIVLGIARDIRFETPLMWLNKAETWALADYYQQLDTVRYHTLTCYNGIKGDGCGQCAACHLRANGLAQYQKDAATVMASLKQKVGLR	not failed
MKRDVLYNRIILSVFLLSLVSCVAIYYAQQTNQYNTNFLGMQLVFLAIGTLTCFGVSRLPVEFLRHHAIWLYVIMVITLLGILIPNPLVQNINGATRWYRFAGLSFQPSEVVKSIFIFVLAHFAVKYQAQKWKQLGILTVLTGIVLLLIMKQPDLGTTIVYGVTALAIILLAIKSTKLMVGIITLILTAATVGMYVVVYHISLLEKIGFHAYQFSRIQTWLDPTTDPDAVYQLNLSMKAVGSGMMTGSSGTNAYIPESHTDMIFSTIGHQFGFVGVSLLLILFMVLIHQLIMAALLMKNTFSSLVLAGFAVSFAFNIFENIGMTVGLMPLTGIPLPFISYGGSAVLGNFIAVGVVLAIIRSDADLIEEK	failed
MKRFCNGLLASALVLSLLLTGCGAAGGQQPAQASGPEQPAVRTVTDAEGNVVEVPQDISRIAVTPLPWSSVVSAIDGGSQRLASINPGALKAYSGSFFAKLDKNYATLDDTSIGSDFSINVEELLNRQVQVVIIWEYQTAEAAKLKDVGIVPVMVKNGNVQELQDSFKAVGQLLGKEERAKWVNDEYAKAYEKMKSYGEQVKKADKPRVLYLKRSDLTLQGNDNFIKESMELAGADNIAAEAKSITMEEILKLDPEIILLSDFDKFLPQDLYENRIEGQDWSSVSAVVNKRVYKTPVGIYRWDAPGVETPLMMFWLGKMLQPEIFSEVDLKAEMKAFYQDVFDYSLTDEDFGQIFNDKANAASERRIS	failed
MKRFIVGIDLGTSNTVVAYVEAGGDAIRVFDVDQLVAPGEVGARPLLPSARYHPAPGEFAPGELQLPWRDAEAGDAADAGDAPPAVIGTLARTLGAQVPGRLVTSAKSWLSHASVDRLAPILPWGAADAGGKVSPVAASASYLAHVRAAWNRRFPDAPLEQQDVVLTVPASFDDGARSLTLEAARLAKLPALRLLEEPQAAFYDWLFHHRDSLREELARTRLVLVCDVGGGTTDLTLIKVHAEDGEPQLTRIGVGDHLMLGGDNMDLALARVAEARLARDGGARLSAASLSQLVERCRAAKERLLDANPPDSVGVTLLGAGARLVGGARKTELGRAEVEQIVVDGFFPAGGPDDLPRRSRAALVEFGLPYAADAAVTRHVAAFLHRLAAQSRDALGAAGASDRALPVPDTLLLNGGVFRSRALAERVAGVLGDWRGQPLHVLRNDHPDVAVARGAVAYGLARAGRAPRIGGGSPRSYFLVVDDGAHASRGVCVLPRGTAEGHDVRLDDRVFALRLGHPVRFHLASTVADHAWRAGELADLGAGGFVRLPPVATVVRRQDAGGASERLVKLTTSLTEVGTLDMRCIATDDSSQRWQLEFQLRREPAGGGDAADASRHPSLDEAIELIDRSFGARLANVDPKEVRRLRGQLEQLLGARDAWDIALLRELFGALWARAGRRRRSADHERVWLNLAGYCVRPGFGHPLDDWRVAQLWTLFDDGIQYVNDAQVWSEWWTLWRRAAGGLDDDAQREALDAMAWLQEAARAKRPKLPFDAAKIGDMDIVRLSASLERVPVERKIALGEDLLARLRRPAENHQCWWAIGRIGARRPLYGSAHGVVPPDVAGRWLDAILAVDWKKVEPAAFAAAQIARMTGDRSSDVAADVRERVVRRLAAMNASDAWVRMVSEVVALDSADTGRAFGESLPAGLKLVAD	failed
MKRFIVRAVLILVSFVLLIQLWIFCSLAWWRTHPVETTMFMRLDYWSDSSKPIQQQWRDYDEISDNFKKAVVAAEDGKFVHHHGFDWEGIQYALEKNEKSGEVVNGGSTISQQLAKNLFLYNQRSLIRKGQEAIATWMMERMWSKQRILEVYMNSVQFGDHLYGVEAASHYYFHRSAQNLTRDQAAFLAALLPNPKYYQENRNDPRFKFKKRFTLKYMRYSEIP	failed
MKRFNVLKYIRTTKANIQTIAMPLTTKPLSLKINAALFDVDGTIIISQPAIAAFWRDFGKDKPYFDAEHVIHISHGWRTYDAIAKFAPDFADEEYVNKLEGEIPEKYGEHSIEVPGAVKLCNALNALPKEKWAVATSGTRDMAKKWFDILKIKRPEYFITANDVKQGKPHPEPYLKGRNGLGFPINEQDPSKSKVVVFEDAPAGIAAGKAAGCKIVGIATTFDLDFLKEKGCDIIVKNHESIRVGEYNAETDEVELIFDDYLYAKDDLLKW	not failed
MKRGRRASPAAGQHFKVLACEPCVSRRGIYTTLSLQLQKRALQGLQGGAGRRDLSLDRKGFHGLFLRCPFAALRCCQLRLLLGELLLSIFNLLLYFLDRIIEGRLARTANAATTTCCTSLAAFGGSLIRAFLCLSGGRRSSSRLGCFGVGRLDRDRQRAGVAVQCRSIDGSHDGLLGF	failed
MKRKKIKNQLLVLTSILVLLSLEVAPVVTLAAELPSSSLQTALSSETTITSEEKVTETTETTVATSTTSTSSSSSESSSSTDTTTESTSQSTTETTTTNTSSETKKEPTEPTVSSEITQPVEQSQPPQVPVTKQEPEEPIQVPEANNNFVEENQAVSLNPSLKVDEIASSNLKGYELPLLSSFGEKKRAVVVAEALRHVGKTKKEFNLTEQALTSSFLAQKIYQQLFKIDIGSTPQEQMTFGKVRSIEEAEPGDLIFWQTAEGKTLQNGVYLGQGKYLIAAAESDSKEKPEVIAQLENIYTAKQQPDSKEEKRLVVTNPFKEFILTEYGKEVLATYGASFEMQKSEQTTAFIKKIGETARELGEKYDVFASVMIAQAILESGSGESQLAKEPYYNLFGVKGSFQGNSVSFSTKEADQRGQLYTISAGFRDYGGYNDSLQDYVQLLRQGIDGNQDFYKPAWRSEAKNYLQATRFLTGKYATDKQYDNKLNSLIAVYNLTQFDLPKTVDGLIIQSKNKLSEAEQQQMHFPVYDGINYNRSGSYPVGQCTWYVYNRFKQLGTSVDEFMGNGSDWGRKGRALGYQVSSLPKAGRAISFQPGVAGADNQYGHVAFVEAVTSDGIIISESNVINDQTISYRVLPNVIAYSSGVTYIGA	failed
